Source: publication PMC5405513, “Identification and biochemical characterization of the fructokinase gene family in Arabidopsis thaliana” (BMC Plant Biology, 2017)

Tests used:
Test in all cases: coupled pyruvate kinase / lactate dehydrogenase assay, NADH oxidation at A340
Format in all cases: biochemical, Arabidopsis thaliana
Conditions in all cases: 50 mM Tris pH 7.5, 100 mM KCl, 10 mM MgCl2, 1 mM fructose, 10 mM phosphate, Michaelis-Menten fit
[1] = substrate: Nc1ncnc2c1ncn2[C@@H]1O[C@H](COP(=O)(O)OP(=O)(O)OP(=O)(O)O)[C@@H](O)[C@H]1O
Description: coupled pyruvate kinase / lactate dehydrogenase assay, NADH oxidation at A340 on FRK6

[2] = substrate: Nc1ncnc2c1ncn2[C@@H]1O[C@H](COP(=O)(O)OP(=O)(O)OP(=O)(O)O)[C@@H](O)[C@H]1O; remark: listed apart in the source
Description: coupled pyruvate kinase / lactate dehydrogenase assay, NADH oxidation at A340 on FRK3

[3] = substrate: Nc1ncnc2c1ncn2[C@@H]1O[C@H](COP(=O)(O)OP(=O)(O)OP(=O)(O)O)[C@@H](O)[C@H]1O; remark: listed apart in the source
Description: coupled pyruvate kinase / lactate dehydrogenase assay, NADH oxidation at A340 on FRK1

[4] = substrate: Nc1ncnc2c1ncn2[C@@H]1O[C@H](COP(=O)(O)OP(=O)(O)OP(=O)(O)O)[C@@H](O)[C@H]1O; remark: listed apart in the source
Description: coupled pyruvate kinase / lactate dehydrogenase assay, NADH oxidation at A340 on FRK4

[5] = substrate: Nc1ncnc2c1ncn2[C@@H]1O[C@H](COP(=O)(O)OP(=O)(O)OP(=O)(O)O)[C@@H](O)[C@H]1O; remark: listed apart in the source
Description: coupled pyruvate kinase / lactate dehydrogenase assay, NADH oxidation at A340 on FRK2

[6] = substrate: Nc1ncnc2c1ncn2[C@@H]1O[C@H](COP(=O)(O)OP(=O)(O)OP(=O)(O)O)[C@@H](O)[C@H]1O; remark: listed apart in the source
Description: coupled pyruvate kinase / lactate dehydrogenase assay, NADH oxidation at A340 on FRK5

B1: FRK6 (Arabidopsis thaliana) (protein)
chain: MTSSNGDNKGLVVSFGEMLIDFVPTESGVSLSESSGFLKAPGGAPANVAIAVSRLGGRAAFVGKLGDDEFGHMLAGILRKNDVDDQGINFDKGARTALAFVTLRSDGEREFMFYRNPSADMLLRPDELNLELIRSAKVFHYGSISLITEPCRSAHMKAMEVAKEAGALLSYDPNLREPLWPSPEEARKQIMSIWDKADIIKVSDVELEFLTGNKTIDDETAMSLWHPNLKLLLVTLGENGCRYYTKDFHGSVETFHVDAVDTTGAGDSFVGALLNQIVDDQSVLEEEERLRKVLRFANACGAITTTKKGAIPALPTDCEALSFLKIQVE
Km [1]: 160 ± 21 µM
kcat [1]: 12.8 s⁻¹

B2: FRK3 (Arabidopsis thaliana) (protein)
chain: SNLKGRALSSDGSTQESPYVVCFGEMLIDFVPTTSGLSLADAPAFKKAPGGAPANVAVGIARLGGSSAFIGKVGEDEFGYMLANILKDNNVNNDGMRFDPGARTALAFVTLTNEGEREFMFYRNPSADMLLEESELDFDLIKKAKIFHYGSISLITEPCKSAHISAAKAAKEAGVILSYDPNLRLPLWPSADNAREEILSIWETADIIKISEEEIVFLTKGEDPYDDNVVRKLFHPKLKLLLVTEGPEGCRYYTKDFSGRVHGLKVDVVDTTGAGDAFVAGILSQLANDLSLLQDEERLREALMFANACGALTVKVRGAIPALPTKEAVHEALLKAVV
Km [2]: 52 ± 9.8 µM
kcat [2]: 14.3 s⁻¹

B3: FRK1 (Arabidopsis thaliana) (protein)
chain: MGEDAISGNLKNLTIDTRDSETLVVCFGEMLIDFVPTVGGVSLAEAPAFKKAPGGAPANVAVGVSRLGGSSAFIGKVGDDEFGRMLADILRLNNVDNSGMRFDHNARTALAFVTLRGDGEREFLFFRHPSADMLLLESELDKNLIQKAKIFHYGSISLIEEPCRSTQLVAMKIAKAAGSLLSYDPNLRLPLWPSEEAARKEIMSIWNLADVIKISEDEITFLTGGDDPYDDDVVLQKLFHPNLKLLVVSEGPNGCRYYTQEFKGRVGGVKVKPVDTTGAGDAFVSGLLNSLASDLTLLKDEKKLREALLFANACGAITVTERGAIPAMPSMDAVQDLLSSTRS
Km [3]: 52 ± 7.8 µM
kcat [3]: 14.2 s⁻¹

B4: FRK4 (Arabidopsis thaliana) (protein)
chain: MANTPLIVSFGEMLIDFVPDTSGVSLAESTGFLKAPGGAPANVACAITKLGGKSAFIGKFGDDEFGHMLVNILKKNGVNSEGVCFDTNARTALAFVTLKKDGEREFMFYRNPSADMLLKESELNKDLIKKAKIFHYGSISLISEPCRTAHMAAMKTAKDAGVLLSYDPNVRLPLWPSTEAAIEGIKSIWNEADIIKVSDDEVTFLTRGDAEKDDVVLSLMHDKLKLLIVTDGEKGCRYYTKKFKGRVPGYAVKAVDTTGAGDSFVGAFLVSLGKDGSILDDEGKLKEALAFANACGAVCTTQKGAIPALPTPADAQKLMKSKSK
Km [4]: 95 ± 7.9 µM
kcat [4]: 11.1 s⁻¹

B5: FRK2 (Arabidopsis thaliana) (protein)
chain: MASNGDKGLIVSFGEMLIDFVPTESGVSLAEAPGFLKAPGGAPANVAIAVSRLGGRSAFVGKLGDDEFGHMLAGILRKNGVDDQGINFDTGARTALAFVTLRADGDREFMFYRNPSADMLLRPDELNLDLIRSAKVFHYGSISLIVEPCRSAHLKAMEVAKEAGALLSYDPNLREPLWPSKEEAKTQIMSIWDKAEIIKVSDVELEFLTGSNKIDDETALTLWHPNLKLLLVTLGEKGCRYYTKTFKGAVDPFHVNAVDTTGAGDSFVGALLNQIVDDRSVLEDEERLRKVLRFANACGAITTTKKGAIPALPSDAEVRSFLEKK
Km [5]: 85 ± 8.7 µM
kcat [5]: 10.3 s⁻¹

B6: FRK5 (Arabidopsis thaliana) (protein)
chain: MASSTGEKGLIVSFGEMLIDFVPTVSGVSLSESPGFLKAPGGAPANVAIAVSRLGGRAAFVGKLGDDDFGHMLAGILRKNGVDDQGINFDEGARTALAFVTLRSDGEREFMFYRNPSADMLLRPDELNLELIRSAKVFHYGSISLITEPCRSAHMKAMEVAKEAGALLSYDPNLREPLWPSPEEARTQIMSIWDKADIIKVSDVELEFLTENKTMDDKTAMSLWHPNLKLLLVTLGEKGCTYFTKKFHGSVETFHVDAVDTTGAGDSFVGALLQQIVDDQSVLEDEARLRKVLRFANACGAITTTKKGAIPALPTDIEALSFLKDQKKRQTNLKFSKWCCTASPC
Km [6]: 180 ± 57 µM
kcat [6]: 4.8 s⁻¹
